No end group written: not given here.
Assays:
fibronectin EDB [1] = molecular target: T1, fibronectin EDB (Homo sapiens, UniProt P02751); test: Ka (1/Ms)
T1 construct: After transformation of pET28b vector carrying fibronectin ED-B into BL21 cells; His-tag (N); made in house; host or cells: E. coli BL21
From the text: (§1) Table printed on a drawing sheet, Fig. 11b
Head of the field: Ka (1/Ms)
(§2) The patent's description of the figure: FIG. 11a represents purification of the GST-BPB fusion protein.
(§3) FIG. 11b represents affinity of the GST-BPB to fibronectin EDB.
(§4) First copying reader's note: The name GST-BPB is printed only in Fig. 11a on this sheet, and the description gives Fig. 11b as its affinity to fibronectin EDB; the KD head says M but the cell prints nM.
(§5) Where the first naming reader finds the target: description_of_the_figure: FIG. 11b represents affinity of the GST-BPB to fibronectin EDB.

fibronectin EDB [2] = molecular target: T1, fibronectin EDB; test: Kd (1/s)
From the text: as §1
Head of the field: Kd (1/s)
as §2, §3, §4, §5

T1 sequence (P02751 1271-1359): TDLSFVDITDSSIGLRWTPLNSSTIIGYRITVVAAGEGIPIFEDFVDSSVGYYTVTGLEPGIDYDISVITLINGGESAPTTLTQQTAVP

Substance: GST-BPB: fusion protein of glutathione S-transferase and BPB HCSSAVGSWTWENGKWTWKGIIRLEQ recognizing fibronectin EDB ({GST}-HCSSAVGSWTWENGKWTWKGIIRLEQ)
- Ka (1/Ms) (fibronectin EDB [1]): 1.22 e4 1/Ms
- Kd (fibronectin EDB [2]): 0.00347 s⁻¹

From patent US20120321697A1, “BPB-BASED CARGO DELIVERY SYSTEM” (GWANGJU INSTITUTE OF SCIENCE AND TECHNOLOGY, priority 2009, published 2012)
